Results taken from patent publication US20250289897A1, “LEPTIN RECEPTOR AGONISTIC ANTIBODY AS MONO OR COMBO THERAPIES TO TREAT OBESITY” (ELI LILLY AND COMPANY, priority 2024, published 2025).

Target: T1, mouse-LEPR (Mus musculus, UniProt P48356)
T1 construct: introducing DNA plasmids encoding full-length LEPR of different species and STAT3-luciferase reporter gene into HEK293 cells; expressed in transfected cells; host or cells: HEK293 (HEK293-STAT3Luc-msLepR9)
T1 sequence (P48356 22-1162): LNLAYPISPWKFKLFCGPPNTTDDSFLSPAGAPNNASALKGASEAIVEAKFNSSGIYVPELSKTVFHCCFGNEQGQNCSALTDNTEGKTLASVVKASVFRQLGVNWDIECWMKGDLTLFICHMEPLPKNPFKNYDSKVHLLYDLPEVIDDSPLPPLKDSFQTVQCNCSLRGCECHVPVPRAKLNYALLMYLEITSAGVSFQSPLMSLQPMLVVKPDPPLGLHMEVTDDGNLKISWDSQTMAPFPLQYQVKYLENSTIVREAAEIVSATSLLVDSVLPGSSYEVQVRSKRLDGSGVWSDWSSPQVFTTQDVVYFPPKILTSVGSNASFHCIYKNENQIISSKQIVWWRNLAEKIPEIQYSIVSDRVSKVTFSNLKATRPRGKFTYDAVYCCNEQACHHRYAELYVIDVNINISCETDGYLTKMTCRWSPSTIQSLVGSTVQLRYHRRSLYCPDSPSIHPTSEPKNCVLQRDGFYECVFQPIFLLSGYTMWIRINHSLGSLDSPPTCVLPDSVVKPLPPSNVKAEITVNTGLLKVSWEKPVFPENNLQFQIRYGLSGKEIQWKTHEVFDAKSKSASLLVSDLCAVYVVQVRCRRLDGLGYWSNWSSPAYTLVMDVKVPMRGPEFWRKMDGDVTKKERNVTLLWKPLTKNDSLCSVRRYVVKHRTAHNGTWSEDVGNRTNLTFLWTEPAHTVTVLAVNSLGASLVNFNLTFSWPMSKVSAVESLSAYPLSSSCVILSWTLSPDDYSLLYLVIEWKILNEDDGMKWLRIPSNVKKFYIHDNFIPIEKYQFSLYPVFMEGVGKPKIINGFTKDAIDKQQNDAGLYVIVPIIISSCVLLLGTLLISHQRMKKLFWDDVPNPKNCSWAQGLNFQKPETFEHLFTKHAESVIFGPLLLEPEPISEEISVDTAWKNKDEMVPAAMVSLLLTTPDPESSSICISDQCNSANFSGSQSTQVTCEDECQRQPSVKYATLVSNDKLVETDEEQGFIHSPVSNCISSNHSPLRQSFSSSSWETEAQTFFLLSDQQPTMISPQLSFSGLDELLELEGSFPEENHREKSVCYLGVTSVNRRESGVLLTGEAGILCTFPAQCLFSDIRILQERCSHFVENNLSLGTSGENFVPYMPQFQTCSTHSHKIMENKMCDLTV
Assay: STAT3-luciferase reporter assay in HEK293-STAT3Luc-msLepR9 cells
Format: cell-based
Text: LEPR is a cell surface single-pass transmembrane receptor. Activation of LEPR leads to phosphorylation of intracellular STAT3 (pSTAT3) and subsequent target gene transcription. To measure LEPR activation by anti-LEPR antibodies in the present disclosure, five independent STAT-luciferase reporter cell lines were established by introducing DNA plasmids encoding full-length LEPR of different species and STAT3-luciferase reporter gene into HEK293 cells (Table 4). […]
Before plating the cells for luciferase assays, the poly-D-Lysine coated 96-well plates (Corning Inc, #354651) were rinsed once with phosphate buffered solution (PBS). […] Cell lysing and One-Glo luciferase substrate solution (Promega, #E6120) were then added to each well, and relative luciferase units (RLUs) were measured on a ClarioStar plate reader. For each reporter cell line, positive control LEPR activation was calculated as the average RLUs stimulated by 20 nM recombinant human leptin protein (SEQ ID NO:27) minus the average RLUs of unstimulated cells and was set as maximum LEPR activation (100%). […]

human leptin: recombinant human leptin protein (SEQ ID NO:27), positive control
EC50 (antibodies at concentrations up to 90 nM, read-out: EC50 (nM) ± SEM): 0.0788 ± 0.017 nM | Agonism (%) ± SEM (vs 20 nM recombinant human leptin, antibodies up to 90 nM): 116.17%
